Source: patent US20120114667A1 (AstraZeneca / MedImmune, published 2012)
One block for each binder: values may come before it.

Assays:
[1] = target: T1, α4β1 integrin on J6.77 Jurkat cells (UniProt P13612 34-1032; P05556 21-798); assay: cell-based or functional assay
Macaque α5β1 = target: T2, Macaque α5β1 (Macaque); assay: FACS on macaque PBMC, 1 mM Mn2+
T2 construct: whole, on cells; macaque species not specified; also called monkey α5β1; monkey integrin
Experimental: To determine whether the antibodies cross reacted to monkey integrin, binding to purified Macaque T-cells was assessed. Macaque PBMCs were previously purified from whole blood, and stored frozen. Macaque PBMCs were suspended in adhesion buffer with HBSS 1% BSA and 1 mM Mn2+ (“FACS buffer”), at a concentration of 4.8×10⁵ live cells per ml. 12.5 uL of the primary antibody was added to 37.5 ul of cells, and incubated at 4° C. for 1 hour. Positive and negative controls were included as indicated. 100 uL of FACs buffer is added to dilute out primary antibody, the cells washed and resuspended in the appropriate secondary at 2 ug/mL (50 uL) with 10 ug/mL 7AAD, and stained on ice for 7 minutes. 100 uL of FACs buffer was added and cells were washed twice in FACS buffer, finally the supernatant removed and the cells were resuspended in 100 uL of buffer.
Samples were read on HTS FACS machine and analyzed using Cell Quest Pro software. The data shown in Table 7 confirm that the antibodies cross react with monkey α5β1.

human α5β1 integrin [2] = target: T3, human α5β1 integrin (human, UniProt P08648 42-1049; P05556 21-798); assay: cell-based or functional assay
[3] = target: T1, α4β1 integrin on J6.77 Jurkat cells; assay: cell-based or functional assay; remark: listed apart in the source
human α5β1 integrin [4] = target: T3, human α5β1 integrin; assay: cell-based or functional assay; remark: listed apart in the source
[5] = target: T4, β1 integrin chain on HT29 cells (α5 null line) (human, UniProt P05556 21-798); assay: FACS on HT29 cells (no α5, β1 present)
T4 construct: whole, on cells; β1 is paired with alpha chains other than α5 on these cells; also called β1 chain; beta1
Experimental: To confirm the antibodies bind to the α5 chain or to the α5β1 heterodimer, binding to Human colon adenocarcinoma grade II cells (HT29 cells) was assessed by FACS. […] HT-29 cells were suspended in HBSS with 1% BSA and 1 mM final MnCL₂ at a concentration of 6×10⁵ cells/ml.12.5 uL of the primary antibody was added to 37.5 ul of cells and the plate incubated on ice for 60 minutes. A range of negative controls were included as described previously (indicated as below). In addition as a positive control antibodies to αvβ6 (Mab2077, Chemicon), α5β1 (Mab1909, Chemicon) and av (L230, Chemicon) were included. 100 uL of HBSS buffer was added to dilute primary antibody, the cells pelleted by centrifuging at 1500 rpm for 3 minutes and resuspended in 50 ul Goat anti-human IgG Fc Cy5 or Goat anti Mouse IgG Fc Cy5 secondary at 2 ug/mL. They were then incubated on ice for a further 7 minutes, and 100 uL of HBSS buffer was added to dilute secondary antibody. Finally cells were pelleted by centrifuging at 1500 rpm for 3 minutes, HBSS Buffer/secondary supernatant removed, washed twice in 100 ul of FACS buffer was added and the cells were resuspended and then read on a FACS Calibur HTS. Samples were analyzed using Cell Quest Pro software. The data is represented in Table 6 and confirm that the antibodies are selective for α5β1.

T4 sequence (P05556 21-798): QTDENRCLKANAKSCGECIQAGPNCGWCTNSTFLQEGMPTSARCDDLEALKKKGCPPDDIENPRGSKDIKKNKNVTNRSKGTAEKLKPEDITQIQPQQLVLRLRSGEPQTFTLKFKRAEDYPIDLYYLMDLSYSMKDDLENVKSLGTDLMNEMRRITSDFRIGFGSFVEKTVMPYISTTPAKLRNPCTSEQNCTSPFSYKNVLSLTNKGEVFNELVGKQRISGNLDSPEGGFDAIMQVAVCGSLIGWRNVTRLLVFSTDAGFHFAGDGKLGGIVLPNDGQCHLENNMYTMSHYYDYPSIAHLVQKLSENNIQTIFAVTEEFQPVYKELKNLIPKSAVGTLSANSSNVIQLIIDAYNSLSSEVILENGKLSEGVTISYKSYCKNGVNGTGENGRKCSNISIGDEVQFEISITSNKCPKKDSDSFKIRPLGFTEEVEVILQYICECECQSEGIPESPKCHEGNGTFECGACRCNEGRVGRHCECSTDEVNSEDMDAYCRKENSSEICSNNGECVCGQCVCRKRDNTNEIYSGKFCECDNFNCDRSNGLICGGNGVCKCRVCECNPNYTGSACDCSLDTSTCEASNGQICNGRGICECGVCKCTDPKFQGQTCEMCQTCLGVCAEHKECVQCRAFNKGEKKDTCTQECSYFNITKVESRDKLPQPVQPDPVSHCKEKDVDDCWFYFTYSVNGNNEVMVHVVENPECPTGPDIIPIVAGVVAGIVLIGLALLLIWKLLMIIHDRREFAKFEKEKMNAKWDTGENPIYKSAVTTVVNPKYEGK
T3 sequence (P08648 42-1049, chain 1 of 2): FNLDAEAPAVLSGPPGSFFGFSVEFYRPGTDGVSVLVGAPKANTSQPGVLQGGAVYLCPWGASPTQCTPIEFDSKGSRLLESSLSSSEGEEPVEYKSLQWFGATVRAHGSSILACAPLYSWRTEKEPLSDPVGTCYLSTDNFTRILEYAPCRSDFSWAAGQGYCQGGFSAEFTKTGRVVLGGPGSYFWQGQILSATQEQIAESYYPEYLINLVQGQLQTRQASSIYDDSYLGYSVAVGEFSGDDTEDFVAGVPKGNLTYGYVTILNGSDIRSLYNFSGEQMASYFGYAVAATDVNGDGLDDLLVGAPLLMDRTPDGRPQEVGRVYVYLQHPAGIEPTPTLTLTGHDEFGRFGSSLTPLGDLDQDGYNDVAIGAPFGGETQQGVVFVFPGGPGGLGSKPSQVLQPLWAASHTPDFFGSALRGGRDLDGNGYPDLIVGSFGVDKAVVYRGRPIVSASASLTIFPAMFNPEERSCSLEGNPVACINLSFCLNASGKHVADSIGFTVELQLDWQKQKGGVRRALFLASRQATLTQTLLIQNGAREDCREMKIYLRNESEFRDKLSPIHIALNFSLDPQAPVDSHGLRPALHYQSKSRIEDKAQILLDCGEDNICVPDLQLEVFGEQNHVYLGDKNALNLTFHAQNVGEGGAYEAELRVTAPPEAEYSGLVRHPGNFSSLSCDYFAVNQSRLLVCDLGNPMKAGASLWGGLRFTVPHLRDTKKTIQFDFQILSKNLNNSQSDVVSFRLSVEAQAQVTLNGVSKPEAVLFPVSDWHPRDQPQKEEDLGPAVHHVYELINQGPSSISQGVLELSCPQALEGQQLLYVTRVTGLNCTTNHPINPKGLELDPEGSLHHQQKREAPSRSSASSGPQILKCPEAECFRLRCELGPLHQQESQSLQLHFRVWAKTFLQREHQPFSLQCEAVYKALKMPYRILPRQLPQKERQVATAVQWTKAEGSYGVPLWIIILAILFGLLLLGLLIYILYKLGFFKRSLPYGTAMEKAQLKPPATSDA
T3 sequence (P05556 21-798, chain 2 of 2): as the sequence (P05556 21-798) above
T1 sequence (P13612 34-1032, chain 1 of 2): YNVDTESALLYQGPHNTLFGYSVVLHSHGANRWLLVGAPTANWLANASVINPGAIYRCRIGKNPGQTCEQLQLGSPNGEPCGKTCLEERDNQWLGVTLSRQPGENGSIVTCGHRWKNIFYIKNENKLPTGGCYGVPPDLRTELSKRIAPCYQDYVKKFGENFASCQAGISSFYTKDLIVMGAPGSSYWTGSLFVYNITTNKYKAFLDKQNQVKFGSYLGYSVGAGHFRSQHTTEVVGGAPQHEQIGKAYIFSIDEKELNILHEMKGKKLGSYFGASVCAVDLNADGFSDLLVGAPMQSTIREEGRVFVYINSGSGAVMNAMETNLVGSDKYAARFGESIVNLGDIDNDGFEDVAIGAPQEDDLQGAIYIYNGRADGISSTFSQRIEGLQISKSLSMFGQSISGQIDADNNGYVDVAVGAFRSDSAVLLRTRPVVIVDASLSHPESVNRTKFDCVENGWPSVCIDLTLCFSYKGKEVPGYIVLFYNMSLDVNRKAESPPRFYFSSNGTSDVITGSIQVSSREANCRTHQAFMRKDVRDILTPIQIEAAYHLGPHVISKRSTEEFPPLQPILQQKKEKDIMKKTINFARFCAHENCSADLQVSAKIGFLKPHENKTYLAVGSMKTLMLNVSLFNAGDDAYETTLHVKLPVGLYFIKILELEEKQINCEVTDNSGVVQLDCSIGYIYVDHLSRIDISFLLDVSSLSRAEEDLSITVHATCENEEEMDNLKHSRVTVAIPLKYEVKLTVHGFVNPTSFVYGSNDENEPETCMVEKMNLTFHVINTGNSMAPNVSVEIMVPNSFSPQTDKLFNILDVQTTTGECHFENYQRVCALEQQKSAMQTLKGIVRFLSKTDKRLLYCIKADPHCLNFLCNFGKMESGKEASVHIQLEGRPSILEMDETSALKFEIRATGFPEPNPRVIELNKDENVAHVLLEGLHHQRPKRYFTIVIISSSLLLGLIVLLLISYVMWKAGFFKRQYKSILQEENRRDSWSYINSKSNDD
T1 sequence (P05556 21-798, chain 2 of 2): as the sequence (P05556 21-798) above

Average % inhibition at 5 ug/ml (J6 adhesion to GST-CS-1) [1]: -19% | Geo Mean on Macaque T-cells IgG detection (Macaque α5β1): 12 | % Inhibition of cell adhesion n = 1 (K562 on full length FN) (human α5β1 integrin [2]): 100% | % Inhibition of cell adhesion n = 2 (K562 on full length FN) (human α5β1 integrin [2]): 94% | % Inhibition of cell adhesion n = 3 (K562 on GST-FNIII(9-10), no pre-incubation) (human α5β1 integrin [2]): 96% | % Inhibition of cell adhesion n = 4 (K562 on GST-FNIII(9-10), supernatant 1 in 10) (human α5β1 integrin [2]): 94% | % Inhibition of cell adhesion n = 5 (K562 on GST-FNIII(9-10), supernatant 1 in 10) (human α5β1 integrin [2]): 100% | % Inhibition of adhesion CS1 n = 1 (J6.77 Jurkat on GST-CS-1) [3]: 2% | % Inhibition of adhesion CS1 n = 2 (J6.77 Jurkat on GST-CS-1) [3]: 11% | IC50 ng/mL (K562 adhesion to GST-FNIII(9-10)) (human α5β1 integrin [4]): 14.1 ng/mL | Binding Geomean [5]: 4.73 | binding result [5]: no binding
B3: 2A9.1A1 (antibody, IgG2, V domains shown)
VH: RVQLQESGPGLVKPTQTLSLTCTVSGGSIISGGYFWTWIRQHPGKGLEWIGYIYYSGSTYYSPSLKSRVTISVDTSKNQFSLKLSSVTAADTAVYYCTRAVPAAKGYYSYYGMDVWGQGTTVTVSS
VL: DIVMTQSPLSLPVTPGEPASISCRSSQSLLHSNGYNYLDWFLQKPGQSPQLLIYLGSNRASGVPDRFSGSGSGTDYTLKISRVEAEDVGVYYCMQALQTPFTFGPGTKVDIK

Average % inhibition at 5 ug/ml (J6 adhesion to GST-CS-1) [1]: 1% | Geo Mean on Macaque T-cells IgG detection (Macaque α5β1): 10 | % Inhibition of cell adhesion n = 1 (K562 on full length FN) (human α5β1 integrin [2]): 99% | % Inhibition of cell adhesion n = 2 (K562 on full length FN) (human α5β1 integrin [2]): 100% | % Inhibition of cell adhesion n = 3 (K562 on GST-FNIII(9-10), no pre-incubation) (human α5β1 integrin [2]): 102% | % Inhibition of cell adhesion n = 4 (K562 on GST-FNIII(9-10), supernatant 1 in 10) (human α5β1 integrin [2]): 94% | % Inhibition of cell adhesion n = 5 (K562 on GST-FNIII(9-10), supernatant 1 in 10) (human α5β1 integrin [2]): 96% | % Inhibition of adhesion CS1 n = 1 (J6.77 Jurkat on GST-CS-1) [3]: 22% | % Inhibition of adhesion CS1 n = 2 (J6.77 Jurkat on GST-CS-1) [3]: 18% | IC50 ng/mL (K562 adhesion to GST-FNIII(9-10)) (human α5β1 integrin [4]): 12.4 ng/mL | Binding Geomean [5]: 3.29 | binding result [5]: no binding
B4: 3C2.2A8 (antibody, IgG2, V domains shown)
VH: RVQLQESGPGLVKPTQTLSLTCTVSGGSIISGGYFWTWIRQHPGKGLEWIGYIYYSGSTYYSPSLKSRVTISVDTSKNQFSLKLSSVTAADTAVYYCTRAVPAAKGYYSYYGMDVWGQGTTVTVSS
VL: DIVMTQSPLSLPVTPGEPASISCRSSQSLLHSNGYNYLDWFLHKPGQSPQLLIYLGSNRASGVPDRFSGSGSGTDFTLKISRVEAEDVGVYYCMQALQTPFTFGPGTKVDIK
notes: also called mAb 3C2.2A8

Average % inhibition at 5 ug/ml (J6 adhesion to GST-CS-1) [1]: -2% | Geo Mean on Macaque T-cells IgG detection (Macaque α5β1): 13 | % Inhibition of cell adhesion n = 1 (K562 on full length FN) (human α5β1 integrin [2]): 99% | % Inhibition of cell adhesion n = 2 (K562 on full length FN) (human α5β1 integrin [2]): 99% | % Inhibition of cell adhesion n = 3 (K562 on GST-FNIII(9-10), no pre-incubation) (human α5β1 integrin [2]): 93% | % Inhibition of cell adhesion n = 4 (K562 on GST-FNIII(9-10), supernatant 1 in 10) (human α5β1 integrin [2]): 92% | % Inhibition of cell adhesion n = 5 (K562 on GST-FNIII(9-10), supernatant 1 in 10) (human α5β1 integrin [2]): 100% | % Inhibition of adhesion CS1 n = 1 (J6.77 Jurkat on GST-CS-1) [3]: 17% | % Inhibition of adhesion CS1 n = 2 (J6.77 Jurkat on GST-CS-1) [3]: 9% | IC50 ng/mL (K562 adhesion to GST-FNIII(9-10)) (human α5β1 integrin [4]): 9 ng/mL | Binding Geomean [5]: 3.02 | binding result [5]: no binding
B5: 3G11.1A6 (antibody, IgG2, V domains shown)
VH: RVQLQESGPGLVKPTQTLSLTCTVSGSSIISGGYFWTWIRQHPGKGLEWIGYIYYSGSTYYSPSLKSRVTISVDTSKNQFSLKLSSVTAADTAVYYCTRAVPAAKGYYSYYGMDVWGQGTTVTVSS
VL: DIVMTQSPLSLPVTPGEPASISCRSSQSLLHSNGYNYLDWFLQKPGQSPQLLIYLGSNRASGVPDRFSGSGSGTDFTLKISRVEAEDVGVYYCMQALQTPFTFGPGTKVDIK

Average % inhibition at 5 ug/ml (J6 adhesion to GST-CS-1) [1]: -14% | Geo Mean on Macaque T-cells IgG detection (Macaque α5β1): 12 | % Inhibition of cell adhesion n = 1 (K562 on full length FN) (human α5β1 integrin [2]): 93% | % Inhibition of cell adhesion n = 2 (K562 on full length FN) (human α5β1 integrin [2]): 100% | % Inhibition of cell adhesion n = 3 (K562 on GST-FNIII(9-10), no pre-incubation) (human α5β1 integrin [2]): 94% | % Inhibition of cell adhesion n = 4 (K562 on GST-FNIII(9-10), supernatant 1 in 10) (human α5β1 integrin [2]): 85% | % Inhibition of cell adhesion n = 5 (K562 on GST-FNIII(9-10), supernatant 1 in 10) (human α5β1 integrin [2]): 75% | % Inhibition of adhesion CS1 n = 1 (J6.77 Jurkat on GST-CS-1) [3]: 45% | % Inhibition of adhesion CS1 n = 2 (J6.77 Jurkat on GST-CS-1) [3]: 21% | IC50 ng/mL (K562 adhesion to GST-FNIII(9-10)) (human α5β1 integrin [4]): 57 ng/mL | Binding Geomean [5]: 3.1 | binding result [5]: no binding
B7: 7B2.3B10 (antibody, IgG4, V domains shown)
VH: QVQLVESGGGVVQPGRSLRLSCAASGFTFSSYGMHWVRQAPGKGLEWVAVIWYDGSYKYYADSVQGRFTISRDNSKNTLYLQMNSLRAEDTAVYYCARDKGGHYFDYWGQGTLVTVSS
VL: DIQMTQSPSSLSASVGDRVTITCRASQSISSYLNWYQQKPGKAPKLLIYAASSLQSGVPSRFSGSGSGTDFTLTISSLQPEDFATYYCQQNFSFPPEWTFGQGTKVEIK

Further lines, the binder ahead of its results:

B1: 9E2.3A8 (antibody, IgG4, V domains shown)
VH: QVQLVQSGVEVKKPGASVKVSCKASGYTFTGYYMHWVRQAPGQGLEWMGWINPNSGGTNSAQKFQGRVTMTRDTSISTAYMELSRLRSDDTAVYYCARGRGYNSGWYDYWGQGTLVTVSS
VL: DIVMTQSPDSLAVSLGERATINCKSSQSVLHNSHNENYLTWYQQKPGQPPKLLIYWASSRESGVPDRFSGSGSGTDFTLSISSLQADDVAVYYCQQYFSNPWTFGQGTKVEIK
Average % inhibition at 5 ug/ml (J6 adhesion to GST-CS-1) [1]: 2% | Geo Mean on Macaque T-cells IgG detection (Macaque α5β1): 12 | % Inhibition of cell adhesion n = 1 (K562 on full length FN) (human α5β1 integrin [2]): 98% | % Inhibition of cell adhesion n = 2 (K562 on full length FN) (human α5β1 integrin [2]): 100% | % Inhibition of cell adhesion n = 3 (K562 on GST-FNIII(9-10), no pre-incubation) (human α5β1 integrin [2]): 94% | % Inhibition of cell adhesion n = 4 (K562 on GST-FNIII(9-10), supernatant 1 in 10) (human α5β1 integrin [2]): 94% | % Inhibition of cell adhesion n = 5 (K562 on GST-FNIII(9-10), supernatant 1 in 10) (human α5β1 integrin [2]): 87% | % Inhibition of adhesion CS1 n = 1 (J6.77 Jurkat on GST-CS-1) [3]: 40% | % Inhibition of adhesion CS1 n = 2 (J6.77 Jurkat on GST-CS-1) [3]: 10% | IC50 ng/mL (K562 adhesion to GST-FNIII(9-10)) (human α5β1 integrin [4]): 73.4 ng/mL | Binding Geomean [5]: 2.86 | binding result [5]: no binding

B2: 2E10.1B9 (antibody, IgG2, V domains shown)
VH: RVQLQESGPGLVKPTQTLSLTCTVSGGSIISGGYFWTWIRQHPGKGLEWIGYIYYSGSTYYSPSLKSRVTISVDTSKNQFSLKLSSVTAADTAVYYCTRAVPAAKGYYSYYGMDVWGQGTTVTVSS
VL: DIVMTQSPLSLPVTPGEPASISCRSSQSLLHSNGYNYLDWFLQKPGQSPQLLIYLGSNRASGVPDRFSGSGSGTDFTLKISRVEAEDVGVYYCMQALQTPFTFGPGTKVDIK
Geo Mean on Macaque T-cells IgG detection (Macaque α5β1): 12 | % Inhibition of cell adhesion n = 1 (K562 on full length FN) (human α5β1 integrin [2]): 97% | % Inhibition of cell adhesion n = 2 (K562 on full length FN) (human α5β1 integrin [2]): 94% | % Inhibition of cell adhesion n = 3 (K562 on GST-FNIII(9-10), no pre-incubation) (human α5β1 integrin [2]): 96% | % Inhibition of cell adhesion n = 4 (K562 on GST-FNIII(9-10), supernatant 1 in 10) (human α5β1 integrin [2]): 86% | % Inhibition of cell adhesion n = 5 (K562 on GST-FNIII(9-10), supernatant 1 in 10) (human α5β1 integrin [2]): 87% | % Inhibition of adhesion CS1 n = 1 (J6.77 Jurkat on GST-CS-1) [3]: 31% | % Inhibition of adhesion CS1 n = 2 (J6.77 Jurkat on GST-CS-1) [3]: -5% | Binding Geomean [5]: 3.11 | binding result [5]: no binding

B6: 2C5.2B12 (antibody, IgG2, V domains shown)
VH: RVQLQESGPGLVKPTQTLSLTCTVSGGSIISGGYFWTWIRQHPGKGLEWIGYIYYSGSTYYSPSLKSRVTISVDTSKNQFSLKLSSVTAADTAVYYCTRAVPAAKGYYSYYGMDVWGQGTTVTVSS
VL: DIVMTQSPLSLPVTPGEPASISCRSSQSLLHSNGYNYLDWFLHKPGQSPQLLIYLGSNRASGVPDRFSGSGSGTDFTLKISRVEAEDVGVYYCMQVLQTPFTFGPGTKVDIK
Average % inhibition at 5 ug/ml (J6 adhesion to GST-CS-1) [1]: 18% | Geo Mean on Macaque T-cells IgG detection (Macaque α5β1): 11 | % Inhibition of cell adhesion n = 1 (K562 on full length FN) (human α5β1 integrin [2]): 100% | % Inhibition of cell adhesion n = 2 (K562 on full length FN) (human α5β1 integrin [2]): 96% | % Inhibition of cell adhesion n = 3 (K562 on GST-FNIII(9-10), no pre-incubation) (human α5β1 integrin [2]): 101% | % Inhibition of cell adhesion n = 4 (K562 on GST-FNIII(9-10), supernatant 1 in 10) (human α5β1 integrin [2]): 96% | % Inhibition of cell adhesion n = 5 (K562 on GST-FNIII(9-10), supernatant 1 in 10) (human α5β1 integrin [2]): 97% | % Inhibition of adhesion CS1 n = 1 (J6.77 Jurkat on GST-CS-1) [3]: 14% | % Inhibition of adhesion CS1 n = 2 (J6.77 Jurkat on GST-CS-1) [3]: -5% | IC50 ng/mL (K562 adhesion to GST-FNIII(9-10)) (human α5β1 integrin [4]): 11.9 ng/mL | Binding Geomean [5]: 3.6 | binding result [5]: no binding
